In the supplement of paper PMC9112550, “Optimization of the antimicrobial peptide Bac7 by deep mutational scanning” (BMC Biology, 2022):

System: Escherichia coli TOP10
Assay: shrunken log2 fold change of peptide-encoding DNA abundance (4.5 h post-induction vs induction); higher = less antimicrobial activity (less host growth inhibition)
Details: time post-induction: 4.5 h; library: site-saturation at positions 5, 18, 19, 20
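Further: peptides expressed intracellularly from a pBAD plasmid library in pooled LB shake-flask culture, induced with 0.3% L-arabinose, DNA abundance read by NGS, three biological replicates, DESeq2 with apeglm shrinkage.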

| Sequence | shrunken log2 fold change |
| --- | --- |
| RRIRRRPPRLPRPRPRPWQWPRP | 0.549 |
| RRIRWRPPRLPRPRPRPEPRPRP | 0.886 |
| RRIRKRPPRLPRPRPRPKDTPRP | 0.26 |
| RRIRWRPPRLPRPRPRPEFAPRP | 1.02 |
| RRIRHRPPRLPRPRPRPIYHPRP | -0.0782 |
| RRIRDRPPRLPRPRPRPKMHPRP | 0.159 |
| RRIRHRPPRLPRPRPRPSTEPRP | -0.168 |
| RRIRLRPPRLPRPRPRPKDWPRP | 0.467 |
| RRIRHRPPRLPRPRPRPHSVPRP | -0.0237 |
| RRIRQRPPRLPRPRPRPNMDPRP | -0.225 |
| RRIRVRPPRLPRPRPRPIQEPRP | -0.169 |
| RRIRGRPPRLPRPRPRPIATPRP | 3 |
| RRIRDRPPRLPRPRPRPYWRPRP | -0.0818 |
| RRIRGRPPRLPRPRPRPAHIPRP | 0.0667 |
| RRIRPRPPRLPRPRPRPRFKPRP | 0.166 |
| RRIRFRPPRLPRPRPRPAHVPRP | -0.0462 |
| RRIRARPPRLPRPRPRPFSPPRP | -0.342 |
| RRIRARPPRLPRPRPRPYEFPRP | 0.182 |
| RRIRQRPPRLPRPRPRPCSTPRP | 0.0062 |
| RRIRGRPPRLPRPRPRPYCIPRP | 0.174 |
| RRIRNRPPRLPRPRPRPWIPPRP | -0.536 |
| RRIRFRPPRLPRPRPRPRWVPRP | 0.191 |
| RRIRVRPPRLPRPRPRPCVCPRP | -0.0618 |

| Sequence | shrunken log2 fold change |
| --- | --- |
| RRIRMRPPRLPRPRPRPDMLPRP | 0.0647 |
| RRIRERPPRLPRPRPRPQKNPRP | -0.49 |
| RRIRDRPPRLPRPRPRPEDMPRP | 1.81 |
| RRIRFRPPRLPRPRPRPRMMPRP | -0.404 |
| RRIRFRPPRLPRPRPRPSYDPRP | -0.0248 |
| RRIRPRPPRLPRPRPRPVEFPRP | 0.068 |
| RRIRLRPPRLPRPRPRPMQFPRP | 0.179 |
| RRIRSRPPRLPRPRPRPYPHPRP | -0.227 |
| RRIRFRPPRLPRPRPRPRQGPRP | 0.259 |
| RRIRTRPPRLPRPRPRPEAPPRP | 0.139 |
| RRIRYRPPRLPRPRPRPQLCPRP | -0.0902 |
| RRIRCRPPRLPRPRPRPQTGPRP | -0.144 |
| RRIRSRPPRLPRPRPRPHLSPRP | -0.0791 |
| RRIRTRPPRLPRPRPRPEAMPRP | 0.0163 |
| RRIRHRPPRLPRPRPRPGMKPRP | -0.113 |
| RRIRERPPRLPRPRPRPKGKPRP | -0.0014 |
| RRIRIRPPRLPRPRPRPKQGPRP | 0.391 |
| RRIRKRPPRLPRPRPRPWVKPRP | -0.148 |
| RRIRNRPPRLPRPRPRPFWPPRP | 0.226 |
| RRIRNRPPRLPRPRPRPANTPRP | -0.242 |
| RRIRERPPRLPRPRPRPKAFPRP | 0.0124 |
| RRIRGRPPRLPRPRPRPYFIPRP | -0.336 |
| RRIRLRPPRLPRPRPRPHLFPRP | -0.0266 |

| Sequence | shrunken log2 fold change |
| --- | --- |
| RRIRRRPPRLPRPRPRPSYVPRP | -0.0434 |
| RRIRWRPPRLPRPRPRPEQHPRP | 0.339 |
| RRIRCRPPRLPRPRPRPMWYPRP | -0.414 |
| RRIRLRPPRLPRPRPRPDLMPRP | -0.145 |
| RRIRDRPPRLPRPRPRPNWQPRP | 0.00408 |
| RRIRDRPPRLPRPRPRPPTNPRP | 0.0808 |
| RRIRYRPPRLPRPRPRPDNMPRP | -0.0223 |
| RRIRKRPPRLPRPRPRPCIWPRP | 0.0573 |
| RRIRLRPPRLPRPRPRPYYCPRP | -0.223 |
| RRIRTRPPRLPRPRPRPFGSPRP | 0.0169 |
| RRIRYRPPRLPRPRPRPFNHPRP | -0.732 |
| RRIRARPPRLPRPRPRPGTFPRP | -0.125 |
| RRIRLRPPRLPRPRPRPDGSPRP | 0.0129 |
| RRIRYRPPRLPRPRPRPSKAPRP | -0.223 |
| RRIRLRPPRLPRPRPRPKVVPRP | -0.0761 |
| RRIRWRPPRLPRPRPRPREYPRP | 0.0698 |
| RRIRCRPPRLPRPRPRPGNCPRP | -0.0286 |
| RRIRMRPPRLPRPRPRPTMKPRP | 0.482 |
| RRIRIRPPRLPRPRPRPEENPRP | -0.306 |
| RRIRWRPPRLPRPRPRPTSCPRP | 0.581 |
| RRIRYRPPRLPRPRPRPCFWPRP | -0.136 |
| RRIRQRPPRLPRPRPRPRMNPRP | -0.15 |
| RRIRWRPPRLPRPRPRPWGPPRP | 0.384 |

| Sequence | shrunken log2 fold change |
| --- | --- |
| RRIRVRPPRLPRPRPRPYPKPRP | -0.858 |
| RRIRSRPPRLPRPRPRPNILPRP | -0.61 |
| RRIRWRPPRLPRPRPRPIMAPRP | 0.14 |
| RRIRVRPPRLPRPRPRPPNCPRP | 0.194 |
| RRIRSRPPRLPRPRPRPFPVPRP | -0.516 |
| RRIRQRPPRLPRPRPRPLDSPRP | -0.00448 |
| RRIRNRPPRLPRPRPRPYHEPRP | -0.342 |
| RRIRNRPPRLPRPRPRPKYLPRP | -0.0259 |
| RRIRQRPPRLPRPRPRPLMYPRP | -0.608 |
| RRIRGRPPRLPRPRPRPKPAPRP | 1.42 |
| RRIRWRPPRLPRPRPRPPRQPRP | 0.209 |
| RRIRKRPPRLPRPRPRPLHWPRP | 0.59 |
| RRIRLRPPRLPRPRPRPKSPPRP | 0.0414 |
| RRIRRRPPRLPRPRPRPLWRPRP | 0.348 |
| RRIRIRPPRLPRPRPRPSRVPRP | -0.0608 |
| RRIRCRPPRLPRPRPRPQMPPRP | -0.0931 |
| RRIRSRPPRLPRPRPRPDTDPRP | 0.0794 |
| RRIRKRPPRLPRPRPRPEHRPRP | -0.0428 |
| RRIRSRPPRLPRPRPRPRWLPRP | 0.297 |
| RRIRSRPPRLPRPRPRPFIMPRP | -1.09 |
| RRIRWRPPRLPRPRPRPRRKPRP | 0.178 |
| RRIRMRPPRLPRPRPRPRAHPRP | 0.758 |
